Results reported in PMC11306496, “Myosin Va-dependent Transport of NMDA Receptors in Hippocampal Neurons” (Neuroscience Bulletin, 2024).

Target: T1, myosin Va (rat (endogenous in hippocampus), UniProt Q9QYF3 1-1828)
T1 construct: myosin Va, rat, endogenous in hippocampus; also called MyoVa; source: endogenous, rat hippocampal homogenate
Experiment: co-IP; total rat hippocampal lysates with primary antibody and Protein A/G agarose, 4°C; buffer pH 7.4, 0.05 mol/L HEPES, 0.15 mol/L NaCl, 0.5% NP-40, 1% Triton X-100; non-immune IgG as control; slices untreated or treated with PMA (0.5 umol/L, 10 min) and/or AIP (1 umol/L)
Conditions: partners not purified

T1 sequence (Q9QYF3 whole entry): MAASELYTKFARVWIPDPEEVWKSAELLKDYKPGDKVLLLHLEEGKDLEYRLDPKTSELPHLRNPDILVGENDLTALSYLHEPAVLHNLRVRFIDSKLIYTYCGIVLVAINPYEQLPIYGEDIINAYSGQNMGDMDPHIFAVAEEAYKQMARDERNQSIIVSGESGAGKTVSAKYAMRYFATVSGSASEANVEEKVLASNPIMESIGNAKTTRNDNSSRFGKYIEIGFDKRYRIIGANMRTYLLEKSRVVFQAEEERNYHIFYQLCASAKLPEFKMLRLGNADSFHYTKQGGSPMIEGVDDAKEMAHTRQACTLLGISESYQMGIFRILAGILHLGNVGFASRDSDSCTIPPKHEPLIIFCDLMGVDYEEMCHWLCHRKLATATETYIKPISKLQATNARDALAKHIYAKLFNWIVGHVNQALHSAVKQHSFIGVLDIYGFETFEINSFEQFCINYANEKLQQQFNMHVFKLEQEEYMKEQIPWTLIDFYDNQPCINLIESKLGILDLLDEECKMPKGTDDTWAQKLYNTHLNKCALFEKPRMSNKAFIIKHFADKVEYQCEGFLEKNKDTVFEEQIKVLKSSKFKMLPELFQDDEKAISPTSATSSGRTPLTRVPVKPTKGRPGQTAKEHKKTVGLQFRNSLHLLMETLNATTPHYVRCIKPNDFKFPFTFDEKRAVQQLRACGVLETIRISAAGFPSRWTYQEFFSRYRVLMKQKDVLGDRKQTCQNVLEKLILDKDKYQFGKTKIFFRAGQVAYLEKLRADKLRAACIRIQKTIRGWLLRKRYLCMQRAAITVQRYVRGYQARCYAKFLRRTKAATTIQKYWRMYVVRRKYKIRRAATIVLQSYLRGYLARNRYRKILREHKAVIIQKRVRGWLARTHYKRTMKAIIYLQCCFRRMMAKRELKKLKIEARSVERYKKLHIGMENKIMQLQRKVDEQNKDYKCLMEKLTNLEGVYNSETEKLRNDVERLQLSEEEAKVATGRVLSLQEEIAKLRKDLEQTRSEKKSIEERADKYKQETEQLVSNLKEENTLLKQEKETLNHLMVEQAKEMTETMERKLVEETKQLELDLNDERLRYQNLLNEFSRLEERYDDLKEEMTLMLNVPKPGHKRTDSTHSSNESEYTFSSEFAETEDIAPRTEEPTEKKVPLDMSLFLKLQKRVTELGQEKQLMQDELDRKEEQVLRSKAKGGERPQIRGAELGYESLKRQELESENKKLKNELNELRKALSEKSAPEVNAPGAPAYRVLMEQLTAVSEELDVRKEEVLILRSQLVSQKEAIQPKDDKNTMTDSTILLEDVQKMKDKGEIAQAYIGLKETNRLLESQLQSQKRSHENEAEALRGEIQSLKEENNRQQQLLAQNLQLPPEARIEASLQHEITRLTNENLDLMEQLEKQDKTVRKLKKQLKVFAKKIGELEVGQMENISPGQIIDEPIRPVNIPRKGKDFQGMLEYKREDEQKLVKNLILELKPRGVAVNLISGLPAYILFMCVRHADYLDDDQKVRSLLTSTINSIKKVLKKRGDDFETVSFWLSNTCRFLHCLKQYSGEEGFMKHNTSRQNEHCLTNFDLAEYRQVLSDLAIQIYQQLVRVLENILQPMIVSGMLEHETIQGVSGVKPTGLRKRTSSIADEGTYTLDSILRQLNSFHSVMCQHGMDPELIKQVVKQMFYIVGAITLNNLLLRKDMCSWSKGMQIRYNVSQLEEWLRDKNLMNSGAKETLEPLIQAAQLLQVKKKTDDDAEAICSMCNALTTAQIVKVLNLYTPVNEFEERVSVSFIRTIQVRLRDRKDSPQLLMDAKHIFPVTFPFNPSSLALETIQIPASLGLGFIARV

- co-IP signal with PMA, normalised to control (IP with anti-MyoVa): 1.59 fold of control
B1: NMDA receptor subunit GluN2A (receptor)
chain: not shown
notes: NMDA receptor subunit GluN2A, rat, endogenous in hippocampus; source: endogenous, rat hippocampal homogenate (slices or cultured hippocampal neurons)
